Experimental data taken from the supplement of paper PMC9170038.

Test system: MS2 coat protein
Experiment: apparent KD of MS2 coat protein; higher = weaker reporter binding
Settings: Eterna round: R107
Outline: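 Apparent KD is reported per design as the median of normalised binding-curve fits across its clusters. The RNA switches were made by on-chip transcription from Illumina sequencing clusters. SNAP-549-labelled MS2 coat protein was then added in twofold steps (0.7 or 1.5 nM to 3 µM; 0.8–1.5 h to 10–20 min per step) in 100 mM Tris-HCl pH 7.5, 80 mM KCl, 4 mM MgCl2, without or with constant ligand.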

[1] = input ligand: theophylline 20 uM
[2] = input ligand: theophylline 2 mM
[3] = input ligand: tryptophan 2.4 mM

## AGUAGUUGACAAAAGUCAGCUACAAUUGAAGGAGCGGGUGGGUGCCCAGGUAGGUCGCAAUAACAUGAGGAUCACCCAUGUAUAA [ArgAS 2 #BothOrNeither #OpenEnded]
Input ligand: arginine 13.2 mM
  apparent KD of MS2 coat protein: 20 nM
Input ligand: none
  apparent KD of MS2 coat protein: 21 nM
[1]
  apparent KD of MS2 coat protein: 22.9 nM
[2]
  apparent KD of MS2 coat protein: 27.2 nM
[3]
  apparent KD of MS2 coat protein: 17.9 nM

## GCCGGGCCUUCGGCCGCCACUGAGAGAGUCGUGUGAACAUGAGGAUCACCCAUGUAAUAUAUAUACAGGACCGGGAGGGCCCGGC [4.V]
Input ligand: arginine 13.2 mM
  apparent KD of MS2 coat protein: 12.6 nM
Input ligand: none
  apparent KD of MS2 coat protein: 16.3 nM
[1]
  apparent KD of MS2 coat protein: 17.8 nM
[2]
  apparent KD of MS2 coat protein: 14.9 nM
[3]
  apparent KD of MS2 coat protein: 10.4 nM

## AAUACCGGAUCGGCCGCCACUGGUUGGCCCUGUGUACAUGAGGAUCACCCAUGUCCAUCCCAAACCAGGACCGGGAUCUUUGUGC [Ededmate]
Input ligand: arginine 13.2 mM
  apparent KD of MS2 coat protein: 11.7 nM
[1]
  apparent KD of MS2 coat protein: 15.8 nM
[2]
  apparent KD of MS2 coat protein: 13.7 nM

## ACAUGAGGAUCACCCAUGUCAUGAGGUUCACGAGGACCGGUACGGCCGCCACUCGACAUGAGGGUCACCCGUGAAGGGAACACCC [xdmullin]
Input ligand: arginine 13.2 mM
  apparent KD of MS2 coat protein: 18.1 nM
Input ligand: none
  apparent KD of MS2 coat protein: 22.7 nM
[1]
  apparent KD of MS2 coat protein: 29.8 nM
[2]
  apparent KD of MS2 coat protein: 42.9 nM
[3]
  apparent KD of MS2 coat protein: 17.9 nM

## ACAUGAGGAUCACCCAUGUAUGAUGUUCCUCGAGGACCGGUACGGCCGCCACUCGAACGAGUGGCGCGCGAGCGCGCGCUCGCGC [aVa]
Input ligand: arginine 13.2 mM
  apparent KD of MS2 coat protein: 14 nM
Input ligand: none
  apparent KD of MS2 coat protein: 15.6 nM
[1]
  apparent KD of MS2 coat protein: 27.2 nM
[2]
  apparent KD of MS2 coat protein: 17.3 nM
[3]
  apparent KD of MS2 coat protein: 15.2 nM

## ACGAUAGCACACGAGGAUCACCCGUGUGAUACCAGCCUGGAAACAGGCCCUUGGCAGCACACAAUAAAAGUGUAACUAUCGAAUA [TheoAX4 #MicroSwitchBubble #AlternativeMS2]
Input ligand: arginine 13.2 mM
  apparent KD of MS2 coat protein: 40.2 nM
Input ligand: none
  apparent KD of MS2 coat protein: 54.2 nM
[1]
  apparent KD of MS2 coat protein: 128 nM
[2]
  apparent KD of MS2 coat protein: 161 nM
[3]
  apparent KD of MS2 coat protein: 56.1 nM

## GGGCGCGAGACGGCCGCCACUACACAUGAGGAUCACCCAUGUAUGGCAACAUGAGGAUCUGCCAUUAGGACCGGGUCAGGGCCCA
Input ligand: arginine 13.2 mM
  apparent KD of MS2 coat protein: 29.3 nM
Input ligand: none
  apparent KD of MS2 coat protein: 31.2 nM
[1]
  apparent KD of MS2 coat protein: 53.4 nM
[2]
  apparent KD of MS2 coat protein: 41.8 nM
[3]
  apparent KD of MS2 coat protein: 38.5 nM

## CUCGAGUUAUGAGAUACCAGACUAUAGUUUACAUGAGGAUCACCCAUGUUAUGGGUGGUGGUCCCUUGGCAGCUCAUAUGUUUAA [#08 Exclusion-TheophyllineB]
Input ligand: arginine 13.2 mM
  apparent KD of MS2 coat protein: 105 nM
[1]
  apparent KD of MS2 coat protein: 220 nM
[3]
  apparent KD of MS2 coat protein: 85.1 nM

## GCUACAUGAGGAUCACCCAUGUAUGCGAGCCGAGGACCGGUACGGCCGCCACUCGCUUAACAUGAGGAUCACCCAUGUUUCUCGG [SSTA DOUBLE!!! :-D #16]
Input ligand: arginine 13.2 mM
  apparent KD of MS2 coat protein: 69.9 nM
[1]
  apparent KD of MS2 coat protein: 193 nM
[2]
  apparent KD of MS2 coat protein: 254 nM

## CUGCCAUGCAGAGAUACCAGUGCGCUCAGCACAUGAGGAUCACCCAUGUCGGCUGCCGAUCACCCUUGGCAGCUCUGCAUGGCAG [?@#$_]
Input ligand: arginine 13.2 mM
  apparent KD of MS2 coat protein: 12 nM
[1]
  apparent KD of MS2 coat protein: 13 nM
[3]
  apparent KD of MS2 coat protein: 11.3 nM

## UGUCACUGUUUGGUUCAAUGAAGAAGAAUUCGAGGACCGGUACGGCCGCCACUCGCUAUGCAACAUGAGGAUCACCCAUGUAAAA [theeternabot_exclusion_MS2_Trp_A_31]
Input ligand: arginine 13.2 mM
  apparent KD of MS2 coat protein: 13.4 nM
[1]
  apparent KD of MS2 coat protein: 17 nM
[2]
  apparent KD of MS2 coat protein: 17.3 nM

## UUCAGCUAGUCGGCCGCCACUACACGAGGAUCACCCGUGUUCCUAAAACACUGCUUCGGCAGUGGUAGGACCGGGACUAGCUGAG
Input ligand: arginine 13.2 mM
  apparent KD of MS2 coat protein: 27.7 nM
Input ligand: none
  apparent KD of MS2 coat protein: 27.9 nM
[1]
  apparent KD of MS2 coat protein: 33 nM
[2]
  apparent KD of MS2 coat protein: 36.7 nM
[3]
  apparent KD of MS2 coat protein: 123 nM

## CAGCCACAUGAGGAUCACCCAUGUGAUGAUACCAGCUUCGUCUUAAGCCCUUGGCAGCAUAUCUCUUUGUUCUCAUACAUAGCAU [theeternabot_sameState_MS2_Theo_A_16]
Input ligand: arginine 13.2 mM
  apparent KD of MS2 coat protein: 12 nM
[1]
  apparent KD of MS2 coat protein: 17.3 nM
[3]
  apparent KD of MS2 coat protein: 11.4 nM

## UUAUUUAUAGGCGAUACCAGCCGAAUGGCCGCAAAUCCUAACAUGAGGAUCACCCAUGUCGGCCCUUGGCAGCGCCUAUGGGUUU [XTheo B #27]
Input ligand: arginine 13.2 mM
  apparent KD of MS2 coat protein: 114 nM
Input ligand: none
  apparent KD of MS2 coat protein: 94.7 nM
[1]
  apparent KD of MS2 coat protein: 255 nM
[2]
  apparent KD of MS2 coat protein: 480 nM
[3]
  apparent KD of MS2 coat protein: 93.3 nM

## AGGACGGUCGGAAGGAGCGGUACAUGAGGAUCACCCAUGUAUUCCUGGGCAUCCGUAGUGUGCCAGGUAGGUCGCCGAUUGCGGG [XArg-B7]
Input ligand: arginine 13.2 mM
  apparent KD of MS2 coat protein: 57.6 nM
Input ligand: none
  apparent KD of MS2 coat protein: 32.7 nM
[1]
  apparent KD of MS2 coat protein: 109 nM
[2]
  apparent KD of MS2 coat protein: 103 nM
[3]
  apparent KD of MS2 coat protein: 64.8 nM

## GUUUUCAAGUCGGCCGCCACUGAUACAAUCCUCACCGGUUCACAUGAGGAUCACCCAUGUUCGCUCAGGACCGGGACCUUCUGUG [theeternabot_exclusion_MS2_Trp_B_3]
Input ligand: arginine 13.2 mM
  apparent KD of MS2 coat protein: 77.4 nM
[1]
  apparent KD of MS2 coat protein: 141 nM
[2]
  apparent KD of MS2 coat protein: 142 nM

## UCUAACAUGAGGAUCACCCAUGUGGGUUAUCGAGGACCGGUACGGCCGCCACUCGACCAGUAUAACUGGCUAGAACGUAUUUGAU [theeternabot_sameState_MS2_Trp_A_34]
Input ligand: arginine 13.2 mM
  apparent KD of MS2 coat protein: 31.1 nM
[1]
  apparent KD of MS2 coat protein: 53.6 nM
[2]
  apparent KD of MS2 coat protein: 49.4 nM

## UGUGGGCGCACGGCCGCCACUGUCUUCAUCUGUUUGUCUACAUGAGGAUCACCCAUGUUGGUUUACAGGACCGGGUGCAUCUAUG [SSTryp B #12]
Input ligand: arginine 13.2 mM
  apparent KD of MS2 coat protein: 39.5 nM
[1]
  apparent KD of MS2 coat protein: 80.8 nM
[2]
  apparent KD of MS2 coat protein: 52.1 nM

## AACAUGAGGAUCACCCAUGUCGGGCCGGUGCGAGGACCGGUACGGCCGCCACUCGAGACAUGAGGAUCACCCAUGUUGUGCGUGA [Exclusion Tryptophan A GF23]
Input ligand: arginine 13.2 mM
  apparent KD of MS2 coat protein: 52.6 nM
Input ligand: none
  apparent KD of MS2 coat protein: 162 nM
[1]
  apparent KD of MS2 coat protein: 195 nM
[2]
  apparent KD of MS2 coat protein: 221 nM
[3]
  apparent KD of MS2 coat protein: 138 nM
